Laboratory results: patent publication US20260242478A1 (published 2026)
Where no end group is shown, it is not given here.

How the values were obtained:
[1] = target: T1, Anti-CD28 Fab (SEQ ID NOs: 696, 697); assay: phage binding ELISA on captured anti-CD28 Fab, wells pre-incubated with CD28 antigen as competitor; anti-M13 HRP detection;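 on Anti-CD28 Fab signal in the presence of CD28: crude clonal phage supernatants added to wells preloaded with CD28 antigen, bound phage read by HRP-conjugated anti-M13 antibody, control wells got blocking buffer alone without CD28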
T1 construct: Biotinylated and captured on neutravidin coated plates in the phage ELISA
T1 sequence (VH, as listed by the source, chain 1 of 2): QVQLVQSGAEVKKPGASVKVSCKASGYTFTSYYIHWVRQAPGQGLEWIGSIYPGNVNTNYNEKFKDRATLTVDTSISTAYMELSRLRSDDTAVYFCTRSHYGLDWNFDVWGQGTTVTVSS
T1 sequence (VL, as listed by the source, chain 2 of 2): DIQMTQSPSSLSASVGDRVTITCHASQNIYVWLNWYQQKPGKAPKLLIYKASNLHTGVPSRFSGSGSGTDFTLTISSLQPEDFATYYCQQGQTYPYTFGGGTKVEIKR
Protocol: (§1) After panning, phage infected bacteria were plated out and colonies picked into 96 well blocks. Clonal phage was then amplified and separated from bacterial cells via centrifugation.
(§2) Clonal phage were harvested as crude supematants and screened via standard ELISAs. […] Prior to the addition of clonal phage, wells were incubated with blocking buffer and CD28 antigen or blocking buffer alone. Without washing or aspirating, clonal phage supematants were then added to the wells and incubated for a short time. Wells were then washed followed by detection of bound phage using a horse radish conjugated anti-M13 antibody. Clonal phage of interest were then sent for sequence analysis.

[2] = target: T1, Anti-CD28 Fab (SEQ ID NOs: 696, 697); assay: phage binding ELISA; clonal phage supernatant on biotinylated anti-CD28 Fab captured on neutravidin plate; anti-M13 HRP detection
Protocol: as §1, §2

[3] = target: T2, Anti-CD28 Fab (SEQ ID NOs: 696, 697); assay: phage binding ELISA; Fab on plate pre-incubated with CD28 antigen as competitor, anti-M13 HRP detection;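 further: crude clonal phage supernatants screened by ELISA, with comparison wells pre-incubated in blocking buffer only, lacking CD28 antigen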
T2 construct: Biotinylated and captured on neutravidin coated plates in the phage ELISA
T2 sequence (VH, as listed by the source, chain 1 of 2): as the sequence (VH, as listed by the source, chain 1 of 2) above
T2 sequence (VL, as listed by the source, chain 2 of 2): as the sequence (VL, as listed by the source, chain 2 of 2) above
Protocol: as §1, §2

[4] = target: T2, Anti-CD28 Fab (SEQ ID NOs: 696, 697); assay: phage binding ELISA; biotinylated Fab on neutravidin plate, clonal phage supernatant, anti-M13 HRP detection;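 further: phage from clones picked after panning, added to wells pre-incubated with blocking buffer with or without CD28 antigen, then briefly incubated and washed before detection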
Protocol: as §1, §2

[5] = target: Anti-CD28 Fab (SEQ ID NOs: 696, 697); assay: phage ELISA on captured anti-CD28 Fab; competitor CD28 antigen pre-incubated in the wells;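 further: clonal phage supernatants added to wells preloaded with CD28 antigen in blocking buffer, control wells buffer only, bound phage read via HRP-linked anti-M13 antibody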
Target sequence in this assay (VH, as listed by the source, chain 1 of 2): as the sequence (VH, as listed by the source, chain 1 of 2) above
Target sequence in this assay (VL, as listed by the source, chain 2 of 2): as the sequence (VL, as listed by the source, chain 2 of 2) above

[6] = target: Anti-CD28 Fab (SEQ ID NOs: 696, 697); assay: phage ELISA; clonal phage on biotinylated anti-CD28 Fab captured on neutravidin, anti-M13 HRP detection
Target sequence in this assay (VH, as listed by the source, chain 1 of 2): as the sequence (VH, as listed by the source, chain 1 of 2) above
Target sequence in this assay (VL, as listed by the source, chain 2 of 2): as the sequence (VL, as listed by the source, chain 2 of 2) above
Protocol: as §1, §2

[7] = target: T3, Anti-CD28 Fab (SEQ ID NOs: 696, 697); assay: phage binding ELISA on captured anti-CD28 Fab, wells pre-incubated with CD28 antigen as competitor;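 further: crude clonal phage supernatants added to wells preloaded with CD28 antigen, bound phage read by HRP-conjugated anti-M13 antibody, control wells got blocking buffer alone without CD28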
T3 construct: In the phage ELISA the Fab was biotinylated and captured on neutravidin coated plates
T3 sequence (VH, as listed by the source, chain 1 of 2): as the sequence (VH, as listed by the source, chain 1 of 2) above
T3 sequence (VL, as listed by the source, chain 2 of 2): as the sequence (VL, as listed by the source, chain 2 of 2) above
Protocol: as §1, §2

[8] = target: T3, Anti-CD28 Fab (SEQ ID NOs: 696, 697); assay: phage binding ELISA, clonal phage on biotinylated anti-CD28 Fab captured on neutravidin plates, anti-M13 HRP detection
Protocol: as §1, §2

Binder	Phage binding ELISA, Anti-CD28 Fab signal in the presence of CD28 [1]	Phage binding ELISA, Anti-CD28 Fab signal [2]	Phage binding ELISA, Anti-CD28 Fab signal in the presence of CD28 [5]	Phage binding ELISA, Anti-CD28 Fab signal [6]	other results
YCAGHVPEYMAKCL [Phage-829 (Peptide-87 library sequence, SEQ ID NO: 1145)]	0.07	1.78			
YCDGHTEEYMDKCL (cysteine pairing not given here; also: displayed on phage by fusion to pIII, pIII and linker sequence not given here, Clonal phage of the Peptide-87 library; not shown: fused to the pIII filament protein of the bacteriophage) [Phage-810]					Anti-CD28 Fab signal in the presence of CD28 [3]: 0.09; Anti-CD28 Fab (SEQ ID NOs: 696, 697) signal [4]: 1.82
YCVGHLQEYMEKCL [Phage-839 (Peptide-87 library sequence, SEQ ID NO: 1155)]	0.06	1.76			
YCDGHSSEYIAKCL [Phage-833 (Peptide-87 library sequence, SEQ ID NO: 1149)]	0.07	1.77			
YCDGHTREYIDKCL [Phage-818 (Peptide-87 library peptide, SEQ ID NO: 1134)]			0.08	1.8	
YCDGHLPLYMHKCL (cysteine pairing not given here; also: displayed on phage by fusion to pIII, pIII and linker sequence not given here, Clonal phage of the Peptide-87 library; not shown: fused to the pIII filament protein of the bacteriophage) [Phage-807]					Anti-CD28 Fab signal in the presence of CD28 [3]: 0.07; Anti-CD28 Fab (SEQ ID NOs: 696, 697) signal [4]: 1.82
YCDGHSPEYIAKCL [Phage-824 (Peptide-87 library peptide, SEQ ID NO: 1140)]			0.23	1.79	
YCDGHIPEYLAKCL (cysteine pairing not given here; also: displayed on phage by fusion to pIII, pIII and linker sequence not given here, Peptide-87 library clone, tested as clonal phage supernatant) [Phage-841]					Anti-CD28 Fab signal in the presence of CD28 [7]: 0.06; Anti-CD28 Fab (SEQ ID NOs: 696, 697) signal [8]: 1.76
YCEGHHPQYMAKCL [Phage-828 (Peptide-87 library sequence, SEQ ID NO: 1144)]	0.09	1.78			
YCEGHAPQYLNKCL (cysteine pairing not given here; also: displayed on phage by fusion to pIII, pIII and linker sequence not given here, Clonal phage of the Peptide-87 library; not shown: fused to the pIII filament protein of the bacteriophage) [Phage-808]					Anti-CD28 Fab signal in the presence of CD28 [3]: 0.08; Anti-CD28 Fab (SEQ ID NOs: 696, 697) signal [4]: 1.82
YCAGHSSEYIWKCL (cysteine pairing not given here; also: displayed on phage by fusion to pIII, pIII and linker sequence not given here, Clonal phage of the Peptide-87 library; not shown: fused to the pIII filament protein of the bacteriophage) [Phage-812]					Anti-CD28 Fab signal in the presence of CD28 [3]: 0.06; Anti-CD28 Fab (SEQ ID NOs: 696, 697) signal [4]: 1.82
YCAGHLPEYMLKCL [Phage-837 (Peptide-87 library sequence, SEQ ID NO: 1153)]	0.09	1.76			
YCAGHLPQYMNKCL [Phage-815 (Peptide-87 library peptide, SEQ ID NO: 1131)]			0.06	1.81	
YCEGHLDEYMWKCL [Phage-831 (Peptide-87 library sequence, SEQ ID NO: 1147)]	0.06	1.77			
YCDGHKAEYMEKCL [Phage-816 (Peptide-87 library peptide, SEQ ID NO: 1132)]			0.09	1.81	
YCDGHLGVYMAKCL [Phage-822 (Peptide-87 library peptide, SEQ ID NO: 1138)]			0.07	1.79	
YCDGLASEYMSKCL [Phage-832 (Peptide-87 library sequence, SEQ ID NO: 1148)]	0.05	1.77			
YCQGHSAEYMMKCL [Phage-814 (Peptide-87 library peptide, SEQ ID NO: 1130)]			0.07	1.81	

Binder	Phage binding ELISA, Anti-CD28 Fab signal in the presence of CD28 [1]	Phage binding ELISA, Anti-CD28 Fab signal [2]	Phage binding ELISA, Anti-CD28 Fab signal in the presence of CD28 [5]	Phage binding ELISA, Anti-CD28 Fab signal [6]	other results
YCDGHTSEYITKCL [Phage-823 (Peptide-87 library peptide, SEQ ID NO: 1139)]			0.07	1.79	
YCDGHSSMYMAKCL (cysteine pairing not given here; also: displayed on phage by fusion to pIII, pIII and linker sequence not given here, Clonal phage of the Peptide-87 library; not shown: fused to the pIII filament protein of the bacteriophage) [Phage-811]					Anti-CD28 Fab signal in the presence of CD28 [3]: 0.06; Anti-CD28 Fab (SEQ ID NOs: 696, 697) signal [4]: 1.82
YCAGHLPMYMAKCL [Phage-817 (Peptide-87 library peptide, SEQ ID NO: 1133)]			0.08	1.8	
YCDGHAREYMTKCL (cysteine pairing not given here; also: displayed on phage by fusion to pIII, pIII and linker sequence not given here, Clonal phage of the Peptide-87 library; not shown: fused to the pIII filament protein of the bacteriophage) [Phage-809]					Anti-CD28 Fab signal in the presence of CD28 [3]: 0.06; Anti-CD28 Fab (SEQ ID NOs: 696, 697) signal [4]: 1.82
YCDGHSAEYITKCL [Phage-830 (Peptide-87 library sequence, SEQ ID NO: 1146)]	0.06	1.77			
YCDGHSAEYMEKCI (cysteine pairing not given here; also: displayed on phage by fusion to pIII, pIII and linker sequence not given here, Clonal phage of the Peptide-87 library; not shown: fused to the pIII filament protein of the bacteriophage) [Phage-806]					Anti-CD28 Fab signal in the presence of CD28 [3]: 0.07; Anti-CD28 Fab (SEQ ID NOs: 696, 697) signal [4]: 1.83
YCDGHLAEYMVKCL [Phage-825 (Peptide-87 library peptide, SEQ ID NO: 1141)]			0.08	1.79	
YCEGHSAEFMTKCL (cysteine pairing not given here; also: displayed on phage by fusion to pIII, pIII and linker sequence not given here, Clonal phage of the Peptide-87 library; not shown: fused to the pIII filament protein of the bacteriophage) [Phage-813]					Anti-CD28 Fab signal in the presence of CD28 [3]: 0.06; Anti-CD28 Fab (SEQ ID NOs: 696, 697) signal [4]: 1.81
YCDGHLSEYMFKCL [Phage-821 (Peptide-87 library peptide, SEQ ID NO: 1137)]			0.1	1.79	
YCEGHSPQYVQKCL [Phage-834 (Peptide-87 library sequence, SEQ ID NO: 1150)]	0.06	1.77			
YCDGHAPMYMAKCL [Phage-826 (Peptide-87 library peptide, SEQ ID NO: 1142)]			0.08	1.79	
YCAGHAEQYMAKCL [Phage-820 (Peptide-87 library peptide, SEQ ID NO: 1136)]			0.08	1.8	
YCEGHLPAYMQKCL [Phage-827 (Peptide-87 library sequence, SEQ ID NO: 1143)]	0.07	1.78			
YCVGHAPEFMAKCL [Phage-819 (Peptide-87 library peptide, SEQ ID NO: 1135)]			0.1	1.8	
YCDGHLDEYMEKCL [Phage-836 (Peptide-87 library sequence, SEQ ID NO: 1152)]	0.08	1.76			
YCDGHSPQYMQKCL (cysteine pairing not given here; also: displayed on phage by fusion to pIII, pIII and linker sequence not given here, Peptide-87 library clone, tested as clonal phage supernatant) [Phage-840]					Anti-CD28 Fab signal in the presence of CD28 [7]: 0.07; Anti-CD28 Fab (SEQ ID NOs: 696, 697) signal [8]: 1.76
YCEGHSPEYMRKCL [Phage-835 (Peptide-87 library sequence, SEQ ID NO: 1151)]	0.08	1.77			
YCEGHLPIYMSKCL [Phage-838 (Peptide-87 library sequence, SEQ ID NO: 1154)]	0.09	1.76			
